Measurements as given in patent US20110144312A1 (Kyowa Kirin, published 2011).

T1: mouse IL-10Rα on splenocytes (mouse, UniProt Q61727 17-575)
T1 construct: whole, on cells
T1 sequence (looked up): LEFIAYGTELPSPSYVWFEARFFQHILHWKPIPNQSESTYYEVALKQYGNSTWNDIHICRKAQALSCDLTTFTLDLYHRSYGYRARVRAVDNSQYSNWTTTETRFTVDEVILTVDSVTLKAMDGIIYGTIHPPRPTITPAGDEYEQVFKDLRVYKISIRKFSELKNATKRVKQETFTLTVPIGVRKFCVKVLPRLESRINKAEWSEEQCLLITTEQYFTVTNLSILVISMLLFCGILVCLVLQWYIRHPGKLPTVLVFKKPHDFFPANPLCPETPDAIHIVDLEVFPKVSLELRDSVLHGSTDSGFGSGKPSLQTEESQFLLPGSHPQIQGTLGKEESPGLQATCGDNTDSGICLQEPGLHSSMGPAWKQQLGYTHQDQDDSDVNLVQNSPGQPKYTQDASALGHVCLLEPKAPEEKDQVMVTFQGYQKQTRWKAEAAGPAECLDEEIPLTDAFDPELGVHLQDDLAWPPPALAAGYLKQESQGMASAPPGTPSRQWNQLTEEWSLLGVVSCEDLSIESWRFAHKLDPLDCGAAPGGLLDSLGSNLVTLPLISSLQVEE

T2: cynomolgus macaque IL-10Rα on PBMC (cynomolgus macaque, UniProt Q13651 22-578 (human entry))
T2 construct: Full-length entry cloned from cynomolgus T cells; endogenous on primary PBMC in the assays; also called IL-10Rα on the surface of cynomolgus lymphocytes and monocytes
T2 chain: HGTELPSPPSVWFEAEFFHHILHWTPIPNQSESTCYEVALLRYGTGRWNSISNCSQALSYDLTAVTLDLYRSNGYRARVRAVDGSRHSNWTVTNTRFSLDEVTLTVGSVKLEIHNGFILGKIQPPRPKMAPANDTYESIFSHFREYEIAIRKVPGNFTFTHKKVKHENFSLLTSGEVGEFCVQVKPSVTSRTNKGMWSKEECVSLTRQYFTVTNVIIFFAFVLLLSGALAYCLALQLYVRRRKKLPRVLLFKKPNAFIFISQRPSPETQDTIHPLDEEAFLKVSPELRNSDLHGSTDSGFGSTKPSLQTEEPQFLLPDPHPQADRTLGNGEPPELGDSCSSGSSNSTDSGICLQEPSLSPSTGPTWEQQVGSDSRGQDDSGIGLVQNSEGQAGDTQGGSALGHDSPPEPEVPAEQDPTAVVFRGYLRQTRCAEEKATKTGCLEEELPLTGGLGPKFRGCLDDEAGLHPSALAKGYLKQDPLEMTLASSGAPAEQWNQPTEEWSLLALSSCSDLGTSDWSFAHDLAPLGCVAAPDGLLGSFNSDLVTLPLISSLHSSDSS


Experiments:
[1] = molecular target: T1, mouse IL-10Rα on splenocytes; assay: flow cytometry on splenocytes
[2] = molecular target: T3, human IL-10Rα extracellular domain fused to the Fc portion of human IgG1 (human); assay: ELISA, coated human IL-10Rα:hFc
T3 construct: also called hIL-10Rα:hFc; human IL-10Rα:hFc
Description: FIGS. 2A-2B show relative binding affinity of anti-human IL-10R antibodies for human IL-10Rα. A) Titration of anti-IL-10Rα antibodies binding to coated human IL-10Rα:hFc. Binding was detected with anti-human kappa-HRP, anti-mouse IgG-HRP, or anti-rat IgG-HRP. […] RPMI-8226 cells were labeled with anti-human IL-10Rα antibodies at various concentrations and detected with anti-human IgG-PE. The commercial rat anti-human IL-10Rα antibody 3F9 was detected with anti-rat IgG-PE. The geometric mean fluorescence intensity (geo mean) data are shown.
IL-10Rα Specific Antibody Detection ELISA: Antibody titers, specificity, and production by hybridomas were determined by ELISA. In brief, 96 well flat bottom Maxisorb plates were coated with 50 μl of hIL-10Rα (R&D Systems, Minneapolis, Minn.) at 1 μg/ml in carbonate buffer (pH 9.4) overnight at 4° C. or at 37° C. for 1 hour. After washing three times with PBS/0.05% Tween 20, plates were blocked with Superblock blocking buffer in TBS (Pierce) at room temperature for 30 minutes. […] The reaction was stopped with H₂SO₄ (LabChem) and the optical density was measured at 450 nm by a microplate reader. […] In this assay, binding of specific human IgG were detected with a peroxidase labeled sheep anti-human kappa antibody (The Binding Site, Birmingham, UK).

[3] = molecular target: T4, cynomolgus macaque IL-10Rα extracellular domain fused to the Fc portion of human IgG1 (cynomolgus macaque); assay: ELISA, coated cynomolgus IL-10Rα:hFc
T4 construct: The entry includes the signal peptide; also called cynomolgus IL-10Rα:hFc; cyIL-10Rα
Description: Titration of anti-IL-10Rα antibodies binding to coated chimp or cynomolgus IL-10Rα:hFc. Binding was detected with anti-human kappa-HRP, anti-mouse IgG-HRP, or anti-rat IgG-HRP. Different anti-rat-IgG HRP and anti-mouse IgG antibodies were used to generate the data in panels A and B. The nature of these secondary antibodies can affect the results and lead to different maximum binding (BMAX). The BMAX from these studies are described in Table 5.
IL-10Rα Specific Antibody Detection ELISA: Antibody titers, specificity, and production by hybridomas were determined by ELISA. In brief, 96 well flat bottom Maxisorb plates were coated with 50 μl of hIL-10Rα (R&D Systems, Minneapolis, Minn.) at 1 μg/ml in carbonate buffer (pH 9.4) overnight at 4° C. or at 37° C. for 1 hour. After washing three times with PBS/0.05% Tween 20, plates were blocked with Superblock blocking buffer in TBS (Pierce) at room temperature for 30 minutes. The serum, supernatant, or purified antibody was diluted in blocking buffer, added to the wells, and the plates were incubated for 1 hour at room temperature. The plates were washed 3 times with PBS/0.05% Tween 20 and peroxidase-conjugated goat anti-human IgG (Fcγ specific), anti-rat IgG, or anti-mouse IgG detection antibodies (Jackson Immunoresearch) were added at a dilution of 1:5000. Multiple lots of anti-rat and anti-mouse IgG antibodies were used in different assays. […] Following a 1 hour incubation at room temperature, the plates were washed and the TMB (Sigma) substrate was added and incubated at room temperature for 5 to 10 minutes. The reaction was stopped with H₂SO₄ (LabChem) and the optical density was measured at 450 nm by a microplate reader. A second ELISA protocol using soluble human, chimp and cynomolgus IL-10Rα:hFc recombinant proteins as the coating antigens was also employed. In this assay, binding of specific human IgG were detected with a peroxidase labeled sheep anti-human kappa antibody (The Binding Site, Birmingham, UK).

[4] = molecular target: T2, cynomolgus macaque IL-10Rα on PBMC; assay: flow cytometry on cynomolgus macaque PBMC, lymphocyte gate; competitor: recombinant human IL-10Rα [C]

binding result [1]	fold higher relative binding affinity than 37607 [2] [fold]	BMAX [3] [OD]	binding result [4]	Binder
no binding	~3	1.64	binds	136C5 (antibody, V domains shown, Hybridoma antibody, human IgG1, kappa light chain; also called human anti-human IL-10Rα monoclonal antibody 136C5; hybridoma deposit PTA-9131) VH: EVQLVESGGGLVQPGGSLRLSCAASGFTFSSYSMNWVRQAPGKGLEWVSYISTGSSTIYYADSVKGRFTISRDNAKNSLYLQMNSLRDEDTAVYYCARENYYGSGSYEDYFDYWGQGTLVTVSS VL: EIVLTQSPATLSLSPGERATLSCRASQSVSSYLAWYQQKPGQAPRLLIYDASNRATGIPARFSGSGSGTDFTLTISSLEPEDFAVYYCQQRSNWPIFTFGPGTKVDIK
no binding	~3	1.66	binds	136C8 (antibody, V domains shown, Hybridoma antibody, human IgG2, kappa light chain; also called human anti-human IL-10Rα monoclonal antibody 136C8; hybridoma deposit PTA-9132) VH: EVQLVESGGGLVQPGGSLRLSCAASGFTFSSYSMNWVRQAPGKGLEWVSYISTRSSTIYYADSVKGRFTISRDNAKNSLYLQMNSLRDEDTAVYYCARENYYGSGSYEDYFDYWGQGTLVTVSS VL: EIVLTQSPATLSLSPGERATLSCRASQSVSSYLAWYQQKPGQAPRLLIYDASNRATGIPARFSGSGSGTDFTLTISSLEPEDFAVYYCQQRSNWPIFTFGPGTKVDIK
